Data from US20110165143A1, “MODULATION OF CASPASES AND THERAPEUTICAL APPLICATIONS” (The Regents of the University of Colorado, a body corporate, priority 2010, published 2011).
Peptide text beside a SMILES is read from it. * marks the point of attachment. Cbz = O=C(OCc1ccccc1)*; CH2F = FC*

What was measured:
Fluc-labeled 4T1 cells = test: In vivo tumor growth from a small number of subcutaneously injected Fluc-labeled 4T1 cells; set-up: species or system mice; conditions: about 1000 subcutaneously injected Fluc-labeled 4T1 cells
Procedure: Growth of Fluc-labeled tumor cells in vivo was followed through non-invasive bioluminescence imaging using the IVIS200 instrument (Caliper Life Sciences, Hopkinton, Mass.). Mice to be imaged were injected with 150 mg/kg of D-luciferin (obtained from Caliper Life Sciences) intraperitoneally in 200 μl of PBS and then anesthetized with continuous flow of isofluorane. Imaging of the mice was carried out 10 minutes later. The time between injection and imaging was kept constant among different batches of mice.
Different approaches were used to establish tumor growth than traditionally adopted by other studies. In most of the studies, only a very small number of Fluc-labeled tumor cells (500-1000 cells each) were injected either alone or together with other unlabeled cells (either tumor cells or fibroblast cells) that were either irradiated or un-irradiated. Tumor growth in these cells was monitored through the quantification of bioluminescence signals emitted from labeled tumor cells by using the IVIS200 instrument following manufacturer's instructions.
As PGE2 had been implicated as a regulator of tumor growth, its effect on in vivo tumor growth was evaluated from a small number of Fluc-labeled 4T1 cells.

4T1Fluc cells [1] = test: Growth of Fluc-labeled tumor cells seeded onto dying feeder cells killed by cytotoxic treatment; format: cell-based, mouse; conditions: dying feeder cells killed by a treatment other than radiation
4T1Fluc cells [2] = test: Growth of 4T1Fluc tumor cells plated with lethally irradiated NIH3T3 cells, bioluminescence imaging; format: cell-based, mouse; conditions: about 1000 4T1Fluc cells plated with lethally irradiated NIH3T3 cells plus inhibitor (FIG. 4)
Procedure: FIG. 4 is a graph showing the effect of a caspase inhibitor z-VAD-fmk on 4T1Fluc tumor cell growth when plated with lethally irradiated NIH3T3 cells. About 1000 4T1Fluc cells were plated either alone, with non-irradiated NIH3T3 cells, or with lethally irradiated NIH3T3 cells plus a pan-caspase inhibitor z-VAD-fmk.
For imaging luciferase, the IVIS200 instrument from Caliper Life Sciences (Hopkinton, Mass.) was used. For tissue cultured cells, luciferase signal was imaged by adding PBS or colorless OptiMEM medium (Invitrogen, Carlsbad, Calif.) with D-luciferin (Caliper Life Sciences, Hopkinton, Mass.) at a concentration of 0.15 mg/ml. The cells were imaged at a set time point (e.g., 10 minutes) after the administration of D-luciferin. This allowed the signals from different samples to be compared. After images were taken, the manufacturer supplied software was used to process the images for quantitative data.
In order to rule out the possibility that caspase 3 mediates its growth-promoting function through a non-proteolytic mechanism, experiments were conducted using a pan-caspase inhibitor z-VAD-fmk to treat irradiated cells. […] A further, more definitive confirmation came from experiments where a dominant-negative version of caspase 3 was stably transduced into 4T1 cells. The dominant-negative caspase 3 (DN-casp3) differs with wild type caspase 3 in only one amino acid (C163A). […]

IMR90 cells = test: iPSC induction from IMR90 fibroblasts transduced with transcription factor cocktails; format: cell-based, human; conditions: for increase in frequency of OSNL-induced iPSC formation: IMR90 cells; for suppression / reduction in the frequency of iPSC induction: IMR90 cells stably transduced with the agent
Text: The caspase reporters were transduced into human IMR90 fibroblasts via recombinant lentivirus vectors. After puromycin selection to ensure stable integration of the reporters, the iPSC reprogramming process was initiated by infecting caspase reporter-transduced IMR90 cells with recombinant lentivirus vectors carrying 4 transcription factors (Oct-4, Sox2, Nanog, and Lin28, or OSNL in abbreviation) that are known to induce iPSC formation. To avoid the use of myc, which is known to induce caspase activation and might confound the results, the OSNL protocol was chosen because it was shown not to be essential for iPSC induction.
In order to determine whether the observed caspases 3 and 8 activation had any functional relevance in iPSC induction, down-regulation of caspase activities in OSNL-transduced cells was attempted. In the initial experiment, CrmA was we stably transduced through lentiviral vectors, a cow pox virus protein known to suppress caspases 1 and 8 activities, into IMR90 cells. […] This was a very surprising result because logically one would expect that inhibiting caspase activation would lead to increased iPSC generation because of reduced cell death.
Because CrmA inhibits both caspases 1 and 8, more specific approaches were used to determine which caspase was involved. First, a siRNA-based knockdown approach was used. In this approach, lentiviral vectors encoding either caspase 1- or caspase 8-targeted shRNA was used to infect IMR90 cells. After selecting for cells with stable shRNA knockdown (as verified by western blot analysis), they were infected with OSNL lentivector cocktail.
To provide further proof that the cleavage activities of caspases 3 and 8 are necessary for iPSC formation, lentiviral vectors encoding dominant-negative forms of caspases 3 and 8 were constructed. The dominant negative form of human caspase 8 gene (casp8-DN) encodes a virtually identical protein as the wild type except a single amino acid change (i.e. C360A), which disables its catalytic proteolytic function. This dominant negative form was cloned into a recombinant lentiviral vector. Similarly, the dominant negative form of caspase 3 (Casp3-DN), which contains a single mutation (C163A) that disables its proteolytic function, was also cloned into a lentiviral vector.
When IMR90 cells stably transduced with a lentiviral vector encoding casp8-DN were infected with the OSNL lentiviral cocktail, no iPSC induction process was observed.

CCCCC[C@H](O)/C=C/[C@H]1[C@H](O)CC(=O)[C@@H]1C/C=C\CCCC(=O)O [PGE2, prostaglandin E2]
effect on in vivo tumor growth (Fluc-labeled 4T1 cells): significantly stimulate tumor growth

COc1cc([C@@H]2c3cc4c(cc3[C@@H](O[C@@H]3O[C@@H]5CO[C@@H](C)O[C@H]5[C@H](O)[C@H]3O)[C@H]3COC(=O)[C@H]23)OCO4)cc(OC)c1O [etoposide]
growth-enhancing function conferred on dying cells by the cytotoxic treatment (4T1Fluc cells [1]): engender significant growth-enhancing functions to dying cells

COC(=O)C[C@H](NC(=O)[C@H](C)NC(=O)[C@@H](NC(=O)OCc1ccccc1)C(C)C)C(=O)CF [z-VAD-fmk] (Cbz-Val-Ala-Asp(OMe)-CH2F)
effect on growth-promoting properties of irradiated cells towards 4T1Fluc tumor cell growth (4T1Fluc cells [2]): eliminated the growth-promoting properties of irradiated cells

E7: human papilloma virus type 16 E7 protein, known to inhibit Rb function, co-transduced with OSNL
increase in frequency of OSNL-induced iPSC formation (IMR90 cells): ~5 fold

B1: casp8-DN: dominant negative form of human caspase 8 (C360A), lentiviral vector encoded (protein, UniProt Q14790 1-479, looked up, variant C360A)
chain: MDFSRNLYDIGEQLDSEDLASLKFLSLDYIPQRKQEPIKDALMLFQRLQEKRMLEESNLSFLKELLFRINRLDLLITYLNTRKEEMERELQTPGRAQISAYRVMLYQISEEVSRSELRSFKFLLQEEISKCKLDDDMNLLDIFIEMEKRVILGEGKLDILKRVCAQINKSLLKIINDYEEFSKERSSSLEGSPDEFSNGEELCGVMTISDSPREQDSESQTLDKVYQMKSKPRGYCLIINNHNFAKAREKVPKLHSIRDRNGTHLDAGALTTTFEELHFEIKPHDDCTVEQIYEILKIYQLMDHSNMDCFICCILSHGDKGIIYGTDGQEAPIYELTSQFTGLKCPSLAGKPKVFFIQAAQGDNYQKGIPVETDSEEQPYLEMDLSSPQTRYIPDEADFLLGMATVNNCVSYRNPAEGTWYIQSLCQSLRERCPRGDDILTILTEVNYEVSNKDDKKNMGKQMPQPTFTLRKKLVFPSD
modifications: full-length lentiviral vector encoded
notes: dominant negative form of human caspase 8 (C360A), lentiviral vector encoded
iPSC clones observed (IMR90 cells; OSNL lentiviral cocktail, after 25 days of culture, wild type IMR90 around 550 clones/5×10^5 cells): No iPSC clones were observed
suppression of iPSC induction (IMR90 cells; transduced together with OSKM): over 95%

B2: shRNA targeted to Rb: lentiviral vector-encoded shRNA against human Rb, Open Biosystems (nucleic acid)
DNA: TGCTGTTGACAGTGAGCGCGGATATAGGATACATCTTTAATAGTGAAGCCACAGATGTATTAAAGATGTATCCTATATCCTTGCCTACTGCCTCGGA
modifications: the letters are possibly those of the target site
notes: lentiviral vector-encoded shRNA against human Rb, Open Biosystems
increase in frequency of OSNL-induced iPSC formation (IMR90 cells): almost doubled

B3: Rb: human Rb gene over-expressed from a lentiviral expression vector (protein, UniProt P06400 2-928, looked up)
Retinoblastoma-associated …: PPKTPRKTAATAAAAAAEPPAPPPPPPPEEDPEQDSGPEDLPLVRLEFEETEEPDFTALCQKLKIPDHVRERAWLTWEKVSSVDGVLGGYIQKKKELWGICIFIAAVDLDEMSFTFTELQKNIEISVHKFFNLLKEIDTSTKVDNAMSRLLKKYDVLFALFSKLERTCELIYLTQPSSSISTEINSALVLKVSWITFLLAKGEVLQMEDDLVISFQLMLCVLDYFIKLSPPMLLKEPYKTAVIPINGSPRTPRRGQNRSARIAKQLENDTRIIEVLCKEHECNIDEVKNVYFKNFIPFMNSLGLVTSNGLPEVENLSKRYEEIYLKNKDLDARLFLDHDKTLQTDSIDSFETQRTPRKSNLDEEVNVIPPHTPVRTVMNTIQQLMMILNSASDQPSENLISYFNNCTVNPKESILKRVKDIGYIFKEKFAKAVGQGCVEIGSQRYKLGVRLYYRVMESMLKSEEERLSIQNFSKLLNDNIFHMSLLACALEVVMATYSRSTSQNLDSGTDLSFPWILNVLNLKAFDFYKVIESFIKAEGNLTREMIKHLERCEHRIMESLAWLSDSPLFDLIKQSKDREGPTDHLESACPLNLPLQNNHTAADMYLSPVRSPKKKGSTTRVNSTANAETQATSAFQTQKPLKSTSLSLFYKKVYRLAYLRLNTLCERLLSEHPELEHIIWTLFQHTLQNEYELMRDRHLDQIMMCSMYGICKVKNIDLKFKIIVTAYKDLPHAVQETFKRVLIKEEEYDSIIVFYNSVFMQRLKTNILQYASTRPPTLSPIPHIPRSPYKFPSSPLRIPGGNIYISPLKSPYKISEGLPTPTKMTPRSRILVSIGESFGTSEKFQKINQMVCNSDRVLKRSAEGSNPPKPLKKLRFDIEGSDEADGSKHLPGESKFQQKLAEMTSTRTRMQKQKMNDSMDTSNKEEK
modifications: lentiviral expression
notes: human Rb gene over-expressed from a lentiviral expression vector
suppression / reduction in the frequency of iPSC induction (IMR90 cells; OSNL lentiviral cocktail): about 50%

B4: dominant negative caspase 3 (C163A): dominant negative form of caspase 3 with single mutation C163A, lentiviral vector encoded (protein, UniProt P42574 1-277, looked up, variant C163A)
chain: MENTENSVDSKSIKNLEPKIIHGSESMDSGISLDNSYKMDYPEMGLCIIINNKNFHKSTGMTSRSGTDVDAANLRETFRNLKYEVRNKNDLTREEIVELMRDVSKEDHSKRSSFVCVLLSHGEEGIIFGTNGPVDLKKITNFFRGDRCRSLTGKPKLFIIQAARGTELDCGIETDSGVDDDMACHKIPVEADFLYAYSTAPGYYSWRNSKDGSWFIQSLCAMLKQYADKLEFMHILTRVNRKVATEFESFSFDATFHAKKQIPCIVSMLTKELYFYH
modifications: full-length lentiviral vector encoded
notes: dominant negative form of caspase 3 with single mutation C163A, lentiviral vector encoded
suppression / reduction in the frequency of iPSC induction (IMR90 cells; OSNL lentiviral cocktail): about 80%

B5: shRNA targeted to caspase 1: lentiviral vector-encoded shRNA against human caspase 1, Open Biosystems (nucleic acid)
DNA: TGCTGTTGACAGTGAGCGCGCAATCTTTAACATGTTGAATTAGTGAAGCCACAGATGTAATTCAACATGTTAAAGATTGCATGCCTACTGCCTCGGA
modifications: the letters are possibly those of the target site
notes: lentiviral vector-encoded shRNA against human caspase 1, Open Biosystems
suppression / reduction in the frequency of iPSC induction (IMR90 cells; OSNL lentiviral cocktail): no significant effect
